Data taken from patent US20220403048A1, “BINDING MOLECULES TO ARGINASE II [ARG2]” (Cancer Research Technology Limited, priority 2019, published 2022).

Target: T1, THP-1 lysate derived human trimeric ARG2 (Homo sapiens, UniProt P78540)
T1 construct: expressed in transfected cells; host or cells: THP-1 cells overexpressing human ARG2 (cell lysate)
T1 sequence (P78540 23-354): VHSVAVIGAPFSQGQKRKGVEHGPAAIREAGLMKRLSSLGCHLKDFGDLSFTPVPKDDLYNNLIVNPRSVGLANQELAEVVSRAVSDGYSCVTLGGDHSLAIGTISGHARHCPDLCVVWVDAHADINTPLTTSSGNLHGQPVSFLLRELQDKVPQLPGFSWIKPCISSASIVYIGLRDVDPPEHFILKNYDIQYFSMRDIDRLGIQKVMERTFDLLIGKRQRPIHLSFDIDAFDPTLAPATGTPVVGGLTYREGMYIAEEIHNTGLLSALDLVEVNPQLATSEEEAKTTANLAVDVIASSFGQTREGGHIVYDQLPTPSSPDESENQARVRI
Assay: ELISA binding to THP-1 lysate derived human ARG2
Conditions: biotinylated recombinant human IgG1, FIG. 6
Procedure: C0020187 and C0020065 IgGs were tested for their ability to bind to mammalian expressed human ARG2 produced in transfected THP-1 cells. Lysates of human ARG2 transfected THP-1 cells were prepared and binding to these lysates measured using an ELISA.
Cell lysates were prepared from THP-1 cells overexpressing human ARG2 and from wild type THP-1 cells. Between 600,000-1,000,000 cells were suspended in 1 ml tris-buffered saline (25 mM tris+150 mM sodium chloride in dH2O, pH 7.4) and cell lysates prepared using QIAshredders (QIAgen, UK; cat: 79654).
For the ELISA, maxisorp white plates (Nunc; cat: 437796) were coated overnight at 4° C. with rabbit anti-human ARG2 antibody (Abcam, ab137069) at 1 μg/ml in PBS. The next day, the plate was washed with PBS and blocked with casein blocker (Thermo Scientific, 37528). […]
The blocked ELISA plate was washed with PBS and 50 μl of the pre-incubation mixtures were transferred to the ELISA plate and incubated for 90 minutes at room temperature. […] Next, 100 μl PICO ELISA substrate (Thermo Scientific, 37070) was added to each well, the plate was incubated for 1 minute at room temperature in the dark before being read for luminescence using the Envision plate reader. Data were analysed using GraphPad Prism. […]

B1: C0020065: anti-ARG2 antibody, alternate lead isolation clone, VH SEQ ID NO: 2, VL SEQ ID NO: 7 (antibody, listed as Homo sapiens, V domains shown)
VH: GVNLRESGGGVVQPGRSLRLSCAASGFTFSSYAMHWVRQAPGKGLEWVAVISYDGSNKYYVDSVKGRFTISRDNSKNTLYLQMNSLRAEDTAVYYCARDSSQLWFDYWGRGTLVTVSS
VL: QSVVTQPPSVSGAPGQRVTISCTGSSSNIGTGYDVHWYQQLPGTAPKLLIYGNSNRPSGVPDRFSGSKSGTSASLAITGLQAEDEADYYCQSYDSSLSGSVVFGGGTQLTVL
modifications: C0020065
  binding to THP-1 lysate derived human trimeric ARG2: strong binding
